Patent US11111484B2, “Streptococcus bacteriophage lysins for detection and treatment of gram positive bacteria” (priority 2011, dated 2021)
“And” between values parts separate entries of the source, which are not always exact repeats. Equal values may be shown once.

Columns and labels:
MRSA [1] = test: rat MRSA wound infection with sterile sand (foreign body); assay type: in vivo, rats; conditions: for CFU/Gram, AVG: 10 mg PlySs2 single dose, 15 rats, after 10 days, not true Avg since < values
Method: Animal experiments were initiated by determining the infectious dose of MRSA necessary to cause infection in the rat wound. […] However, when we added a foreign body ([…]), infection occurred at <10^8 CFUs. Specifically, incisions were made in the backs of the rats (5-6 cm in length) and a 2-3 mm incision was made in the underlying tissue. To this was added 100 mg sterile sand and 50 μl of MRSA. The wounds were stapled closed and the animals followed for 10 days and the wounds opened and examined for gross changes and tissue samples taken for bacteriological examination.
Samples (weighed and homogenized tissue) taken from the opened wound yielded about 10^7 CFU MRSA/gram of tissue. This model was very reproducible yielding the same results in at least 10 animals.
We used the model as described above to treat with PlySs2 lysin to determine the effects of the treatment. In this case, half of the animals receiving the MRSA and sand were treated with 10 mg PlySs2 in 50 ul of phosphate buffer (PB), control animals received PB instead 10 minutes after MRSA dosing. The animals were followed for 10 days. At this time the animals were analyzed for gross changes and microbiology. […] This is in sharp contrast to animals treated with a single dose of PlySS2.

S. pyogenes = test: CFU studies, bactericidal effect; assay type: cell-based, Streptococcus pyogenes; conditions: 128 μg/ml PlySs2, 1 hour
Method: (§1) Log-phase bacteria were resuspended in buffer A to an OD600 of 0.1 (=0.5 McFarland≈10^8 CFU/ml). PlySs2 was added at 128 μg/ml to polypropylene microtiter plates (Costar) in triplicate for each test organism. Plates were sealed and incubated at 37° C. with shaking every 5 minutes for 1 hour. After 1 hour of incubation, cells were serially diluted in 10-fold increments and plated on BHI. Triplicate controls for each strain were performed with buffer B replacing PlySs2.

MRSA [2] = test: MRSA wound infection model in rats; conditions: dorsal wound; 500 μL + 100 μL PlySs2 at 10 mg/mL; after 10 days
MRSA MW2 = test: CFU studies, bactericidal effect; assay type: cell-based, Staphylococcus aureus; conditions: 128 μg/ml PlySs2, 1 hour
Method: as §1

E. coli = test: CFU studies, bactericidal effect; assay type: cell-based, Escherichia coli; conditions: E. coli negative control; 128 μg/ml PlySs2; 60 mins
Method: as §1

S. uberis 27598 = test: ΔPlySs1 OD600 lysis, 1 hr, optimal buffering conditions; assay type: cell-based
[3] = system: Group E streptococci K131; test: as above; assay type: cell-based
B. cereus 14579 = test: as above; assay type: cell-based, Bacillus cereus
S. salivarius 9222 = test: as above; assay type: cell-based
S. agalactiae type II = test: as above; assay type: cell-based, Streptococcus agalactiae
S. simulans TNK3 = test: as above; assay type: cell-based, Staphylococcus simulans

B1: PlySs2: Streptococcus suis prophage lysin, SEQ ID NO:3; N-terminal CHAP domain and C-terminal SH3-type 5 domain (protein, listed as Streptococcus suis)
chain: MTTVNEALNNVRAQVGSGVSVGNGECYALASWYERMISPDATVGLGAGVGWVSGAIGDTISAKNIGSSYNWQANGWTVSTSGPFKAGQIVTLGATPGNPYGHVVIVEAVDGDRLTILEQNYGGKRYPVRNYYSAASYRQQVVHYITPPGTVAQSAPNLAGSRSYRETGTMTVTVDALNVRRAPNTSGEIVAVYKRGESFDYDTVIIDVNGYVWVSYIGGSGKRNYVATGATKDGKRFGNAWGTFK
MRSA [1]; 10 mg PlySs2 single dose 10 minutes after MRSA, wound tissue after 10 days
  CFU/Gram, individual rats P1-P15: <5.00E+01 CFU/Gram (10×) and 9.10E+01 CFU/Gram and 5.00E+01 CFU/Gram and 8.40E+02 CFU/Gram and 3.20E+02 CFU/Gram (2×)
MRSA [1]
  CFU/Gram, AVG: 1.41×10^2 CFU/Gram
MRSA [1]; listed as PLYSS2
  CFU/Gram, AVG: 1.41E+02 CFU/Gram
MRSA [1]; AVG buffer / AVG PlySs2
  CFU Reduction vs Control: CFU Reduction vs Control 3.02E+04
MRSA [1]; PlySs2 vs buffer, wound tissue after 10 days
  reduction of MRSA: > 4 logs
MRSA [1]; single dose of PlySS2, 10 days
  gross changes of wounds: did not exhibit pus or necrosis and exhibited better healing
S. pyogenes
  reduction of colony forming units (CFUs): 3 logs
MRSA [2]
  drop of CFU's of MRSA compared with control rats: 3-4 logs
MRSA MW2
  reduction of colony forming units (CFUs): 5 logs
E. coli
  reduction in CFU counts: no reduction in number

B2: ΔPlySs1: truncated PlySs1 lysin, SEQ ID NO:2, N-terminal 254 amino acids: only N-terminal enzymatic and central binding domains (protein, listed as Streptococcus suis)
chain: MTINLETSIRWMSDRVGKVSYSMDYRNGPNSYDCSSAVYYALMAGGAISAGWAVNTEYMHDWLIRNGYVLVAENKPFNAQRHDVCILGKRGYSSGAGGHVVIFVDNVNVIHCNYARNGISIDNYNQVHRGMYYYLYRPANQPSISNKSLDQLVKETLAGVHGNGDTRKASLGSQYEAVMAVINGKASASEKSDEELAREVLAGKHGAGEDRKRSLGPRYEPVQAKVNELLKAKEKPSETAKNEPQTVQFKEDGDL
S. uberis 27598; 6.5 μg/ml
  lysis value after 1 hr (treated/untreated OD600 ratio): 0.42
S. uberis 27598; 13 μg/ml
  lysis value after 1 hr (treated/untreated OD600 ratio): 0.23
S. uberis 27598; 30 μg/ml
  lysis value after 1 hr (treated/untreated OD600 ratio): 0.16
S. uberis 27598; 65 μg/ml
  lysis value after 1 hr (treated/untreated OD600 ratio): 0.14
S. uberis 27598; 130 μg/ml
  lysis value after 1 hr (treated/untreated OD600 ratio): 0.12
[3]; 6.5 μg/ml
  lysis value after 1 hr (treated/untreated OD600 ratio): 0.69
[3]; 13 μg/ml
  lysis value after 1 hr (treated/untreated OD600 ratio): 0.50
[3]; 30 μg/ml
  lysis value after 1 hr (treated/untreated OD600 ratio): 0.33
[3]; 65 μg/ml
  lysis value after 1 hr (treated/untreated OD600 ratio): 0.22
[3]; 130 μg/ml
  lysis value after 1 hr (treated/untreated OD600 ratio): 0.15
B. cereus 14579; 6.5 μg/ml
  lysis value after 1 hr (treated/untreated OD600 ratio): 0.93
B. cereus 14579; 13 μg/ml
  lysis value after 1 hr (treated/untreated OD600 ratio): 0.92
B. cereus 14579; 30 μg/ml
  lysis value after 1 hr (treated/untreated OD600 ratio): 0.86
B. cereus 14579; 65 μg/ml
  lysis value after 1 hr (treated/untreated OD600 ratio): 0.90
B. cereus 14579; 130 μg/ml
  lysis value after 1 hr (treated/untreated OD600 ratio): 0.86
S. salivarius 9222; 6.5 μg/ml
  lysis value after 1 hr (treated/untreated OD600 ratio): 0.80
S. salivarius 9222; 13 μg/ml
  lysis value after 1 hr (treated/untreated OD600 ratio): 0.76
S. salivarius 9222; 30 μg/ml
  lysis value after 1 hr (treated/untreated OD600 ratio): 0.56
S. salivarius 9222; 65 μg/ml
  lysis value after 1 hr (treated/untreated OD600 ratio): 0.53
S. salivarius 9222; 130 μg/ml
  lysis value after 1 hr (treated/untreated OD600 ratio): 0.37
S. agalactiae type II; 6.5 μg/ml
  lysis value after 1 hr (treated/untreated OD600 ratio): 0.61
S. agalactiae type II; 13 μg/ml
  lysis value after 1 hr (treated/untreated OD600 ratio): 0.21
S. agalactiae type II; 30 μg/ml
  lysis value after 1 hr (treated/untreated OD600 ratio): 0.11
S. agalactiae type II; 65 μg/ml
  lysis value after 1 hr (treated/untreated OD600 ratio): 0.08
S. agalactiae type II; 130 μg/ml
  lysis value after 1 hr (treated/untreated OD600 ratio): 0.04
S. simulans TNK3; 6.5 μg/ml
  lysis value after 1 hr (treated/untreated OD600 ratio): 0.96
S. simulans TNK3; 13 μg/ml
  lysis value after 1 hr (treated/untreated OD600 ratio): 1.00
S. simulans TNK3; 30 μg/ml
  lysis value after 1 hr (treated/untreated OD600 ratio): 1.00
S. simulans TNK3; 65 μg/ml
  lysis value after 1 hr (treated/untreated OD600 ratio): 1.00
S. simulans TNK3; 130 μg/ml
  lysis value after 1 hr (treated/untreated OD600 ratio): 0.96
